In one data set the target is T1, PilQ25-354 (Neisseria meningitidis M1080, UniProt Q9JVW4 25-354).
T1 sequence: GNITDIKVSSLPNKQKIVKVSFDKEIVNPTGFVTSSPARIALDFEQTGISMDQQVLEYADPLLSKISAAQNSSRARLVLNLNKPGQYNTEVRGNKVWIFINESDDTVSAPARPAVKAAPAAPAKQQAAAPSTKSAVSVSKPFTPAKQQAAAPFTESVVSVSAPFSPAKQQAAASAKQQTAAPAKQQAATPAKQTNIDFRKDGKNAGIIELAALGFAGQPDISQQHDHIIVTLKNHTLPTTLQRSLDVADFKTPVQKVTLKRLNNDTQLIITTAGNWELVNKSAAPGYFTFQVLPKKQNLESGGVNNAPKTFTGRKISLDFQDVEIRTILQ
Put plainly: EMSA; 5 mM Mg2+; EMSA: 50 mM MOPS pH 7.5, 1 mM EDTA, 1 mM DTT, 5 mM MgCl2, 5% glycerol, 200 ng protein in 10 ul, 20 min room temperature; 6% PAGE. The conditions noted are these: protein: recombinant, tags: His (N-terminal with pQE30), label: 5' 32P. A general note: Mobility shift assays separate free from complexed probe on a gel.

Another data set has as its target T2, PilQ218-478 (Neisseria meningitidis M1080, UniProt Q9JVW4 218-478).
T2 sequence: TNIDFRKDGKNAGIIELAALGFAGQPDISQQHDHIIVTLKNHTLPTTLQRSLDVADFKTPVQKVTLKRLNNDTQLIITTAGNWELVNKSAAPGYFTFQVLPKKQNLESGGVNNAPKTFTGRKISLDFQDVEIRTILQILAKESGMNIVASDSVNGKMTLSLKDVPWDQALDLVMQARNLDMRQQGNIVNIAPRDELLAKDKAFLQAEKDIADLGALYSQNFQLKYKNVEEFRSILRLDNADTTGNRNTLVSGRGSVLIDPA
The description is as above. Particulars: protein: recombinant, tags: His (N-terminal with pQE30), label: 5' 32P.

The next data set deals with T3, PilQ25-132 (Neisseria meningitidis M1080, UniProt Q9JVW4 25-132).
T3 sequence: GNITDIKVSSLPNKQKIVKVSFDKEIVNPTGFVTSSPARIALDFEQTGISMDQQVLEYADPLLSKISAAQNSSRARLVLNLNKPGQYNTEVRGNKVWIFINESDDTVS
The description is as above. The conditions noted are these: protein: recombinant, tags: His, label: 5' 32P.

In a further data set the target is T4, PilQ352-761 (Neisseria meningitidis M1080, UniProt Q9JVW4 352-761).
T4 sequence: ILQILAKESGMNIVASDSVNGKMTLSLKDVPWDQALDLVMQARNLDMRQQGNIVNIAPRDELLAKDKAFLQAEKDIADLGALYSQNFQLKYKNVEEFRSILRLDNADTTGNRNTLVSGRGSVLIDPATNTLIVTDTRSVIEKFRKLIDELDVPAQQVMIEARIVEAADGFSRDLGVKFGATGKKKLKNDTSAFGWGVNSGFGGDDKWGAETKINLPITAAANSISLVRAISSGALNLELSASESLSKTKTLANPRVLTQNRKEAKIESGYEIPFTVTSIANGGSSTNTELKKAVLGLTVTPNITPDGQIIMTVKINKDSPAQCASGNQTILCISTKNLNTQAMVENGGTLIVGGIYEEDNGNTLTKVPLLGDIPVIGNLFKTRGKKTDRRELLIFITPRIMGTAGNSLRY
The description is as above. Particulars: protein: recombinant, tags: His (C-terminal with pET28b), label: 5' 32P.

For data set [1], the target named is T5, PilQ complex (native secretin) (Neisseria meningitidis M1080, UniProt Q9JVW4 25-761).
T5 sequence: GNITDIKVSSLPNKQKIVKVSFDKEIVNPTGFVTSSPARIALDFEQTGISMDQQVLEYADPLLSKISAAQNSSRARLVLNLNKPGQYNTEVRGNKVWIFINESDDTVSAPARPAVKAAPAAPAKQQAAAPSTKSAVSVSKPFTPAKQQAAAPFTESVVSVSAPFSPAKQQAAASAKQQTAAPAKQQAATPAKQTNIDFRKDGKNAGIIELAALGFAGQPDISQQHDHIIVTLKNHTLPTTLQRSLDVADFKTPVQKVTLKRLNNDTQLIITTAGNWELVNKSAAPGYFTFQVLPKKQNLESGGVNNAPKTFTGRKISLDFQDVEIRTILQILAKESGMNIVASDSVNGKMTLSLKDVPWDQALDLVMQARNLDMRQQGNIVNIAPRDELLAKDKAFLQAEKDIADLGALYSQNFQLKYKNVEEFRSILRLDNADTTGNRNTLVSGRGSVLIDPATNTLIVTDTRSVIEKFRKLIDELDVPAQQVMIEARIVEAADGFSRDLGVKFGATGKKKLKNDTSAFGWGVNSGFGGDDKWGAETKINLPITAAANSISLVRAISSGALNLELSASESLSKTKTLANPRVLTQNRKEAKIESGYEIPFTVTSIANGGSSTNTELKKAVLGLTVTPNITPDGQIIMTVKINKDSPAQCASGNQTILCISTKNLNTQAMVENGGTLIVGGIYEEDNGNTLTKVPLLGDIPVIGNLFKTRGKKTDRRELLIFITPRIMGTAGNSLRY
Put plainly: Southwestern; whole-cell lysate, PilQ multimer band; EMSA: 50 mM MOPS pH 7.5, 1 mM EDTA, 1 mM DTT, 5 mM MgCl2, 5% glycerol, 200 ng protein in 10 ul, 20 min room temperature; 6% PAGE. Particulars: chain copies: 12, label: 5' 32P, ss, 1 strand.

B1: T3 (ssDNA)
DNA: CAACAACAACAACAGGCCTGTCATCCAAAATGACAGGCCAACAACAACAACA
With B1, the binding result with PilQ25-354 (ss, 1 strand) was “binds”; with PilQ218-478 (ss, 1 strand) it was “no binding”; with PilQ25-132 (ss, 1 strand), “no binding”; in the data set with PilQ352-761 (ss, 1 strand), “no binding”.

B2: T3+T4 hybrid (dsDNA)
DNA 1: CAACAACAACAACAGGCCTGTCATCCAAAATGACAGGCCAACAACAACAACA
DNA 2: TGTTGTTGTTGTTGGCCTGTCATTTTGGATGACAGGCCTGTTGTTGTTGTTG
For the molecule B2, the binding result in the data set with PilQ25-354 (blunt) was “binds”; in the data set with PilQ25-132 (blunt), “binds”; with PilQ352-761 (blunt), “no binding”.

B3: T1 (ssDNA)
DNA: CAACAACAACAACAGCCGTCTGAACCAAATTCAGACGGCAACAACAACAACA
In the case of B3, the binding result in data set [1] is on record as “binds”; in the data set with PilQ25-354 (ss, 1 strand) it was “binds”; with PilQ218-478 (ss, 1 strand), “no binding”; in the data set with PilQ25-132 (ss, 1 strand), “no binding”; in the data set with PilQ352-761 (ss, 1 strand), “no binding”.

B4: T1+T2 hybrid (dsDNA)
DNA 1: CAACAACAACAACAGCCGTCTGAACCAAATTCAGACGGCAACAACAACAACA
DNA 2: TGTTGTTGTTGTTGCCGTCTGAATTTGGTTCAGACGGCTGTTGTTGTTGTTG
Regarding B4, the binding result with PilQ25-354 (blunt) is reported as “binds”; in the data set with PilQ218-478 (blunt), “no binding”; in the data set with PilQ352-761 (blunt), “no binding”.

B5: T8 (ssDNA)
DNA: GCCGATGCCGTCTGAATATCTTTCAGACGGCAGGCGGCGG
Turning to B5, the binding result in the data set with PilQ25-354 (ss, 1 strand) is “binds”; in the data set with PilQ218-478 (ss, 1 strand), “no binding”; with PilQ352-761 (ss, 1 strand), “no binding”.

B6: T7 (ssDNA)
DNA: CCGCCGCCTGCCGTCTGAAAGATATTCAGACGGCATCGGC
For B6, the binding result in the data set with PilQ25-354 (ss, 1 strand) is on record as “binds”; in the data set with PilQ25-132 (ss, 1 strand) it was “no binding”; in the data set with PilQ352-761 (ss, 1 strand), “no binding”.

B7: T7+T8 hybrid (dsDNA)
DNA 1: CCGCCGCCTGCCGTCTGAAAGATATTCAGACGGCATCGGC
DNA 2: GCCGATGCCGTCTGAATATCTTTCAGACGGCAGGCGGCGG
Turning to B7, the binding result in the data set with PilQ25-354 (blunt) is “binds”; with PilQ352-761 (blunt), “no binding”.

B8: T2 (ssDNA)
DNA: TGTTGTTGTTGTTGCCGTCTGAATTTGGTTCAGACGGCTGTTGTTGTTGTTG
Take B8: the binding result is “binds” with PilQ25-354 (ss, 1 strand); “no binding” with PilQ25-132 (ss, 1 strand); “no binding” with PilQ352-761 (ss, 1 strand).

B9: T4 (ssDNA)
DNA: TGTTGTTGTTGTTGGCCTGTCATTTTGGATGACAGGCCTGTTGTTGTTGTTG
Consider B9, for which the binding result is on record as “binds” with PilQ25-354 (ss, 1 strand); “no binding” with PilQ218-478 (ss, 1 strand); “no binding” in the data set with PilQ25-132 (ss, 1 strand); “no binding” in the data set with PilQ352-761 (ss, 1 strand).

The values above are taken from article PMC2884949, “The outer membrane secretin PilQ from Neisseria meningitidis binds DNA”.
